Source: EP4574844A1 (Numab Therapeutics AG, dated 2025)

Experiments:
recombinant human PDL1 [1] = target: T1, recombinant human PDL1 (human, UniProt Q9NZQ7 19-238, limits assumed); experiment: SPR
T1 construct: SPR antigen; also called CD274; B7-H1

[2] = target: T2, recombinant cynomolgus PDL1 (cynomolgus monkey, UniProt G7PSE7 19-238); experiment: SPR
T2 construct: also called cynom; PDL1

[3] = target: T3, human PD-L1 on the cell surface (human, UniProt Q9NZQ7 19-290); experiment: cell-based or functional assay
recombinant human LILRB2 = target: T4, recombinant human LILRB2 (human, UniProt Q8N423 22-460, limits assumed); experiment: SPR, antibody captured by anti-framework IgG, antigen as analyte (without avidity)
T4 construct: also called ILT4
T4 sequence (Q8N423 22-460 limits assumed): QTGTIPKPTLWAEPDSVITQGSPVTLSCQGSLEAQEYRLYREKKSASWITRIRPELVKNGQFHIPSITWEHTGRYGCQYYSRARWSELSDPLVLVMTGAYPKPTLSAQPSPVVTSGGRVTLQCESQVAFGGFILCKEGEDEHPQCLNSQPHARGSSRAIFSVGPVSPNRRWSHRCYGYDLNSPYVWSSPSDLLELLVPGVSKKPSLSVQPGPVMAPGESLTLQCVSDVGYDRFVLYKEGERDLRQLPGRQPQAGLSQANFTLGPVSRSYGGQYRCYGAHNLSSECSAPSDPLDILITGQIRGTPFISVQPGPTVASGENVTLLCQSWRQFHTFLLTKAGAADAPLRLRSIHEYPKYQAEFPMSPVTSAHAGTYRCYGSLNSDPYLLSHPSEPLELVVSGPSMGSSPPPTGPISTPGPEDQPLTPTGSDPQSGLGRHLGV

[4] = target: T5, human LILRB2 on the cell surface (human, UniProt Q8N423 22-597); experiment: cell-based or functional assay
T5 sequence (Q8N423 22-597): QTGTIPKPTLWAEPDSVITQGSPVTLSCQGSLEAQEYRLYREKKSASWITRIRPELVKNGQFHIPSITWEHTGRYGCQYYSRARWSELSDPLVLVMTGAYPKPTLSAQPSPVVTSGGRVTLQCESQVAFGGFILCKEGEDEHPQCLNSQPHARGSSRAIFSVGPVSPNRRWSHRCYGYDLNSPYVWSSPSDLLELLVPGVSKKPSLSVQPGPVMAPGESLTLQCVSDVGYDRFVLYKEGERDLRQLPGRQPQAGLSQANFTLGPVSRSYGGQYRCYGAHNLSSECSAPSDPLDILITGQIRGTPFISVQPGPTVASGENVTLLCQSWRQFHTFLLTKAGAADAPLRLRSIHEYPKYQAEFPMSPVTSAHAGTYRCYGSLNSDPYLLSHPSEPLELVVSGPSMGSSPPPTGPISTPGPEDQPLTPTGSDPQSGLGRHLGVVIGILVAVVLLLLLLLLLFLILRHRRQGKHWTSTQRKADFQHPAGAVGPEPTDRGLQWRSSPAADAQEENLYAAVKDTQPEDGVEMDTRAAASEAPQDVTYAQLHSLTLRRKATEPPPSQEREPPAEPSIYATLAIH

[5] = target: T5, human LILRB2 on the cell surface; experiment: cell-based or functional assay; remark: listed apart in the source
recombinant human CD47 = recombinant human CD47 (human, UniProt Q08722 19-139, limits assumed); experiment: SPR, antigen immobilised, antibody as analyte
recombinant human PDL1 [6] = target: T1, recombinant human PDL1; experiment: SPR, antigen immobilised, antibody as analyte
[7] = target: T3, human PD-L1 on the cell surface; experiment: cell-based or functional assay; remark: listed apart in the source
[8] = target: T6, human CD47 on the cell surface (human, UniProt Q08722 19-323); experiment: cell-based or functional assay
[9] = target: T6, human CD47 on the cell surface; experiment: cell-based or functional assay; remark: listed apart in the source

T2 sequence (G7PSE7 entry or part of it): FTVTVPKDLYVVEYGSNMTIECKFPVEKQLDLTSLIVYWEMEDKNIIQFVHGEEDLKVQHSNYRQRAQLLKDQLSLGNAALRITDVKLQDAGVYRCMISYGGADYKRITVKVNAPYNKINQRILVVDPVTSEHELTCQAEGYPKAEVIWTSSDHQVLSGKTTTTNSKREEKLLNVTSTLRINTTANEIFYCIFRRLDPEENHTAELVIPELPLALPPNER

Binder | Kd (recombinant human PDL1 [1]) [nM] | koff (recombinant human PDL1 [1]) [s⁻¹] | kon (recombinant human PDL1 [1]) [M⁻¹ s⁻¹] | Kd [2] [nM] | koff [2] [s⁻¹] | kon [2] [M⁻¹ s⁻¹] | PDL1/PD-1 EC50 [nM], NFAT reporter gene assay [3] [nM] | PDL1/PD-1 Max. inhibition (rel. to avelumab) [%] [3] [%] | PD-L1 driven EC50 [nM], phagocytosis of H292 cells [7] [nM] | CD47 driven EC50 [nM], phagocytosis of H292 cells [8] [nM] | also measured
PRO4245 (scFv, anti-PDL1 scFv) scFv: DIQMTQSPSSLSASVGDRVTITCQASQSIGTYLAWYQQKPGKPPKLLIYRGGILASGVPSRFSGSGSGTDFTLTISSLQPEDFATYYCQSNFYSDSTTIGPNAFGTGTKVTVLGGGGGSGGGGSGGGGSGGGGSQQLVESGGGLVQPGGSLRLSCAASGFSFNSDYWIYWVRQAPGKGLEWIASIYGGSSGNTQYASWAQGRFTISKDNSKNTVYLQMNSLRAEDSAVYFCARGYVDYGGATDLWGQGTLVKVSS | 0.036 | 0.00014 | 4e+06 | 0.032 | 0.00014 | 4.6e+06 | 1.81 | 106 | – | – | –
PRO5056 (antibody, human IgG1, kappa, anti-PDL1 x CD47 x (hSA dummy domain); also called PRO5055 with dummy domain for LILRB2-BD) DVQMTQSPSSLSASVGDRVTITCQASQSISSWVSWYQQKPGKPPKLLIYRGGYLESGVPSRFSASGSGTDFTLTISSLQPEDFATYYCQSTDSSTYGGAFGCGTKVTVLGGGGGSGGGGSGGGGSGGGGSQQVVESGGGLVQPGGSLRLSCAVSGIDLNSYAMTWVRQAPGKCLEWIGYIGSASSTYYASWASGRFTISKDNSKNTVYLQMNSLRAEDSAVYFCARGSTYINIWGQGTLVKVSSEPKSSDKTHTCPPCPAPELLGGPSVFLFPPKPKDTLMISRTPEVTCVVVDVSHEDPEVKFNWYVDGVEVHNAKTKPREEQYNSTYRVVSVLTVLHQDWLNGKEYKCKVSNKALPAPIEKTISKAKGQPREPQVYTLPPCREEMTKNQVSLSCAVKGFYPSDIAVEWESNGQPENNYKTTPPVLDSDGSFFLVSKLTVDKSRWQQGNVFSCSVMHEALHNHYTQKSLSLSPGKGGGGSGGGGSDIQMTQSPSSLSASVGDRVTITCQSSESVYSNNQLSWYQQKPGQPPKLLIYDASDLASGVPSRFSGSGSGTDFTLTISSLQPEDFATYYCAGGFSSSSDTAFGCGTKLTVLGGGGGSGGGGSGGGGSGGGGSEVQLVESGGGLVQPGGSLRLSCAASGFSLSSNAMGWVRQAPGKCLEYIGIISVGGFTYYASWAKGRFTISRDNSKNTVYLQMNSLRAEDSATYFCARDRHGGDSSGAFYLWGQGTLVKVSS heavy: not shown light: DIQMTQSPSSLSASVGDRVTITCQASQSINDYLAWYQQKPGKAPKLLIYKGGTLASGVPSRFSGSGSGTDFTLTISSLQPEDFATYYCQQGYIITDIDNVFGQGTKVEIKRTVAAPSVFIFPPSDEQLKSGTASVVCLLNNFYPREAKVQWKVDNALQSGNSQESVTEQDSKDSTYSLSSTLTLSKADYEKHKVYACEVTHQGLSSPVTKSFNRGEC | – | – | – | – | – | – | – | – | 0.13 | 54.3 | CD47 driven EC50 [nM], phagocytosis of A375 cells [9]: 76.9 nM; Kd (recombinant human CD47): 56.6 nM; koff (recombinant human CD47): 0.0249 s⁻¹; kon (recombinant human CD47): 439000 M⁻¹ s⁻¹; Kd (recombinant human PDL1 [6]): 0.0105 nM; koff (recombinant human PDL1 [6]): 2.13e-05 s⁻¹; kon (recombinant human PDL1 [6]): 2.02e+06 M⁻¹ s⁻¹
PRO4688 (antibody, human IgG1, kappa) DVQMTQSPSSLSASVGDRVTITCQASQSISSWVSWYQQKPGKPPKLLIYRGGYLESGVPSRFSASGSGTDFTLTISSLQPEDFATYYCQSTDSSTYGGAFGCGTKVTVLGGGGGSGGGGSGGGGSGGGGSQQVVESGGGLVQPGGSLRLSCAVSGIDLNSYAMTWVRQAPGKCLEWIGYIGSASSTYYASWASGRFTISKDNSKNTVYLQMNSLRAEDSAVYFCARGSTYINIWGQGTLVKVSSEPKSSDKTHTCPPCPAPELLGGPSVFLFPPKPKDTLMISRTPEVTCVVVDVSHEDPEVKFNWYVDGVEVHNAKTKPREEQYNSTYRVVSVLTVLHQDWLNGKEYKCKVSNKALPAPIEKTISKAKGQPREPQVYTLPPCREEMTKNQVSLSCAVKGFYPSDIAVEWESNGQPENNYKTTPPVLDSDGSFFLVSKLTVDKSRWQQGNVFSCSVMHEALHNHYTQKSLSLSPGKGGGGSGGGGSDIQMTQSPSSLSASVGDRVTITCQSSESVYSNNQLSWYQQKPGQPPKLLIYDASDLASGVPSRFSGSGSGTDFTLTISSLQPEDFATYYCAGGFSSSSDTAFGCGTKLTVLGGGGGSGGGGSGGGGSGGGGSEVQLVESGGGLVQPGGSLRLSCAASGFSLSSNAMGWVRQAPGKCLEYIGIISVGGFTYYASWAKGRFTISRDNSKNTVYLQMNSLRAEDSATYFCARDRHGGDSSGAFYLWGQGTLVKVSS heavy: not shown light: DIQMTQSPSSLSASVGDRVTITCQASQSIGTYLAWYQQKPGKPPKLLIYRGGILASGVPSRFSGSGSGTDFTLTISSLQPEDFATYYCQSNFYSDSTTIGPNAFGQGTKVEIKRTVAAPSVFIFPPSDEQLKSGTASVVCLLNNFYPREAKVQWKVDNALQSGNSQESVTEQDSKDSTYSLSSTLTLSKADYEKHKVYACEVTHQGLSSPVTKSFNRGEC | – | – | – | – | – | – | – | – | 0.08 | 13.5 | –

Second part, led by results:

Kd (recombinant human PDL1 [1]) [nM] | koff (recombinant human PDL1 [1]) [s⁻¹] | kon (recombinant human PDL1 [1]) [M⁻¹ s⁻¹] | Kd [2] [nM] | koff [2] [s⁻¹] | kon [2] [M⁻¹ s⁻¹] | PDL1/PD-1 EC50 [nM], NFAT reporter gene assay [3] [nM] | PDL1/PD-1 Max. inhibition (rel. to avelumab) [%] [3] [%] | PD-L1 driven EC50 [nM], phagocytosis of H292 cells [7] [nM] | CD47 driven EC50 [nM], phagocytosis of H292 cells [8] [nM] | Binder | also measured
– | – | – | – | – | – | – | – | 0.043 | 8.62 | PRO4687 (antibody, human IgG1, kappa, trispecific anti-PDL1 x CD47 x LILRB2; PDL1-BD (37-20-B03-sc18) as Fab) DVQMTQSPSSLSASVGDRVTITCQASQSISSWVSWYQQKPGKPPKLLIYRGGYLESGVPSRFSASGSGTDFTLTISSLQPEDFATYYCQSTDSSTYGGAFGCGTKVTVLGGGGGSGGGGSGGGGSGGGGSQQVVESGGGLVQPGGSLRLSCAVSGIDLNSYAMTWVRQAPGKCLEWIGYIGSASSTYYASWASGRFTISKDNSKNTVYLQMNSLRAEDSAVYFCARGSTYINIWGQGTLVKVSSEPKSSDKTHTCPPCPAPELLGGPSVFLFPPKPKDTLMISRTPEVTCVVVDVSHEDPEVKFNWYVDGVEVHNAKTKPREEQYNSTYRVVSVLTVLHQDWLNGKEYKCKVSNKALPAPIEKTISKAKGQPREPQVYTLPPCREEMTKNQVSLSCAVKGFYPSDIAVEWESNGQPENNYKTTPPVLDSDGSFFLVSKLTVDKSRWQQGNVFSCSVMHEALHNHYTQKSLSLSPGKGGGGSGGGGSDVQMTQSPSSLSASVGDRVTITCQASQSIGSNLAWYQQKPGKPPKLLIYKGGTLESGVPSRFSGSGSGTDFTLTISSLQPEDFATYYCQSTAGSSRSGNYGYVFGCGTKVTVLGGGGGSGGGGSGGGGSGGGGSQQLVESGGGLVQPGGSLRLSCAASGFSFTNNYYMCWVRQAPGKCLEWIACMLVGAWGNTYYASWANGRFTISKDNSKNTVYLQMNSLRAEDSAVYFCARARDYTWTLGGDPETSGFNLWGQGTLVKVSS heavy: not shown light: DIQMTQSPSSLSASVGDRVTITCQASQSIGTYLAWYQQKPGKPPKLLIYRGGILASGVPSRFSGSGSGTDFTLTISSLQPEDFATYYCQSNFYSDSTTIGPNAFGQGTKVEIKRTVAAPSVFIFPPSDEQLKSGTASVVCLLNNFYPREAKVQWKVDNALQSGNSQESVTEQDSKDSTYSLSSTLTLSKADYEKHKVYACEVTHQGLSSPVTKSFNRGEC | Kd (recombinant human LILRB2): 0.36 nM; koff (recombinant human LILRB2): 9.3e-05 s⁻¹; kon (recombinant human LILRB2): 260000 M⁻¹ s⁻¹; IL-1β EC50 [nM], LPS-driven cytokine secretion [4]: 0.205 nM; IL-6 EC50 [nM], LPS-driven cytokine secretion [4]: 0.097 nM; TNF-α EC50 [nM], LPS-driven cytokine secretion [4]: 0.175 nM; CD86 EC50 [nM], re-polarization of M2 macrophages [5]: 0.078 nM; CD163 EC50 [nM], re-polarization of M2 macrophages [5]: 0.07 nM; CD206 EC50 [nM], re-polarization of M2 macrophages [5]: 0.124 nM; Kd (recombinant human CD47): 25.2 nM; koff (recombinant human CD47): 0.0204 s⁻¹; kon (recombinant human CD47): 811000 M⁻¹ s⁻¹; Kd (recombinant human PDL1 [6]): 0.0885 nM; koff (recombinant human PDL1 [6]): 0.000116 s⁻¹; kon (recombinant human PDL1 [6]): 1.31e+06 M⁻¹ s⁻¹
– | – | – | – | – | – | – | – | 0.18 | 11 | PRO4673 (antibody) chain 1: DVQMTQSPSSLSASVGDRVTITCQASQSISSWVSWYQQKPGKPPKLLIYRGGYLESGVPSRFSASGSGTDFTLTISSLQPEDFATYYCQSTDSSTYGGAFGCGTKVTVLGGGGGSGGGGSGGGGSGGGGSQQVVESGGGLVQPGGSLRLSCAVSGIDLNSYAMTWVRQAPGKCLEWIGYIGSASSTYYASWASGRFTISKDNSKNTVYLQMNSLRAEDSAVYFCARGSTYINIWGQGTLVKVSSEPKSSDKTHTCPPCPAPELLGGPSVFLFPPKPKDTLMISRTPEVTCVVVDVSHEDPEVKFNWYVDGVEVHNAKTKPREEQYNSTYRVVSVLTVLHQDWLNGKEYKCKVSNKALPAPIEKTISKAKGQPREPQVYTLPPCREEMTKNQVSLSCAVKGFYPSDIAVEWESNGQPENNYKTTPPVLDSDGSFFLVSKLTVDKSRWQQGNVFSCSVMHEALHNHYTQKSLSLSPGKGGGGSGGGGSDIQMTQSPSSLSASVGDRVTITCQSSESVYSNNQLSWYQQKPGQPPKLLIYDASDLASGVPSRFSGSGSGTDFTLTISSLQPEDFATYYCAGGFSSSSDTAFGCGTKLTVLGGGGGSGGGGSGGGGSGGGGSEVQLVESGGGLVQPGGSLRLSCAASGFSLSSNAMGWVRQAPGKCLEYIGIISVGGFTYYASWAKGRFTISRDNSKNTVYLQMNSLRAEDSATYFCARDRHGGDSSGAFYLWGQGTLVKVSS chain 2: not shown | –
0.0041 | 3.9e-05 | 6e+06 | 0.0034 | 2.9e-05 | 5.9e+06 | 1.36 | 94.6 | – | – | PRO3891 (scFv, anti-PDL1 scFv) scFv: DIQMTQSPSSLSASVGDRVTITCQASQSINDYLAWYQQKPGKAPKLLIYKGGTLASGVPSRFSGSGSGTDFTLTISSLQPEDFATYYCQQGYIITDIDNVFGTGTKVTVLGGGGGSGGGGSGGGGSGGGGSQVQLQESGPGLVKPSETLSLTCKASGFSFSSGYDMCWVRQPPGKGLEWIACVVAGSVDITYYASWAKGRVTISKDSSKNQVSLKLSSVTAADSAVYYCARKDAYSDAFNLWGQGTLVKVSS | –
0.015 | 9.3e-05 | 6.3e+06 | 0.012 | 8.4e-05 | 7e+06 | 0.93 | 91.8 | – | – | PRO2230 (scFv, anti-PDL1 scFv; also called 37-20-B03-sc09.1) scFv: DIQMTQSPASLSASVGDRVTITCQASQSIGTYLAWYQQKPGKPPKLLIYRAFILASGVPSRFSGSGSGTDFTLTISSLQPEDFATYYCQSNFYSDSTTIGPNAFGTGTKVTVLGGGGGSGGGGSGGGGSGGGGSEVQLVESGGGLVQPGGSLRLSCAASGFSFNSDYWIYWVRQAPGKGLEWIASIYGGSSGNTQYASWAQGRFTISRDNSKNTVYLQMNSLRAEDTAVYFCARGYVDYGGATDLWGQGTLVTVSS | –
